The target of this test is T1, purified, catalytically-active recombinant human p85α:p110α heterodimer (human, UniProt P27986 1-724; P42336 1-1068).
T1 construct: human PI3K regulatory subunit p85α; human PI3K catalytic subunit p110α; also called recombinant human PI3K; purified recombinant PI3K protein; source: bought: SignalChem (co-expression in Sf9 cells, >90% pure)
Kind of test: pull-down; purified recombinant human PI3K (1 µg) with GST or GST-Ad9 E4-ORF1 on glutathione-sepharose beads; immunoblot with p85α and p110α antibodies. The settings on record: both partners purified.

These results are taken from article PMC4006922, “The Human Adenovirus E4-ORF1 Protein Subverts Discs Large 1 to Mediate Membrane Recruitment and Dysregulation of Phosphatidylinositol 3-Kinase” (PLoS Pathogens, 2014).

T1 sequence (P27986 whole entry, chain 1 of 2): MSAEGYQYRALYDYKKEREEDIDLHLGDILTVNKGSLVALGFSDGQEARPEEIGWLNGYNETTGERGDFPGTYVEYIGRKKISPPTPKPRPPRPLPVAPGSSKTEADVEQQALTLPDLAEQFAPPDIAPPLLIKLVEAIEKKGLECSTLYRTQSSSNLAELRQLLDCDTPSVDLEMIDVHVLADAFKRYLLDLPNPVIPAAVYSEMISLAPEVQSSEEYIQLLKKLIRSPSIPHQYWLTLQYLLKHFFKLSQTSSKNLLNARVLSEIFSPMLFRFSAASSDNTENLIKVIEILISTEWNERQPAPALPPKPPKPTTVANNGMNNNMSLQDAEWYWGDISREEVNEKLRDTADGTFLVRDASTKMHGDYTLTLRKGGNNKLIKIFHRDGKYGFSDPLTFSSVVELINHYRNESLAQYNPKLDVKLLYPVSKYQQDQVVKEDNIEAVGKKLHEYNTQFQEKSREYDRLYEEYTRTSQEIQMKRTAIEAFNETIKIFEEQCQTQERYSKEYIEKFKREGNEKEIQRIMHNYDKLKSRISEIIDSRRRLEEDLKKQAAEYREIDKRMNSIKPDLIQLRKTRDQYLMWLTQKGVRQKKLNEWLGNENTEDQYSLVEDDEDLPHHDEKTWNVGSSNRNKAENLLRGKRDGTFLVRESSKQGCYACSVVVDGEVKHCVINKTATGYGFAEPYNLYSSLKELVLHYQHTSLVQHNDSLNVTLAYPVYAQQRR
T1 sequence (P42336 whole entry, chain 2 of 2): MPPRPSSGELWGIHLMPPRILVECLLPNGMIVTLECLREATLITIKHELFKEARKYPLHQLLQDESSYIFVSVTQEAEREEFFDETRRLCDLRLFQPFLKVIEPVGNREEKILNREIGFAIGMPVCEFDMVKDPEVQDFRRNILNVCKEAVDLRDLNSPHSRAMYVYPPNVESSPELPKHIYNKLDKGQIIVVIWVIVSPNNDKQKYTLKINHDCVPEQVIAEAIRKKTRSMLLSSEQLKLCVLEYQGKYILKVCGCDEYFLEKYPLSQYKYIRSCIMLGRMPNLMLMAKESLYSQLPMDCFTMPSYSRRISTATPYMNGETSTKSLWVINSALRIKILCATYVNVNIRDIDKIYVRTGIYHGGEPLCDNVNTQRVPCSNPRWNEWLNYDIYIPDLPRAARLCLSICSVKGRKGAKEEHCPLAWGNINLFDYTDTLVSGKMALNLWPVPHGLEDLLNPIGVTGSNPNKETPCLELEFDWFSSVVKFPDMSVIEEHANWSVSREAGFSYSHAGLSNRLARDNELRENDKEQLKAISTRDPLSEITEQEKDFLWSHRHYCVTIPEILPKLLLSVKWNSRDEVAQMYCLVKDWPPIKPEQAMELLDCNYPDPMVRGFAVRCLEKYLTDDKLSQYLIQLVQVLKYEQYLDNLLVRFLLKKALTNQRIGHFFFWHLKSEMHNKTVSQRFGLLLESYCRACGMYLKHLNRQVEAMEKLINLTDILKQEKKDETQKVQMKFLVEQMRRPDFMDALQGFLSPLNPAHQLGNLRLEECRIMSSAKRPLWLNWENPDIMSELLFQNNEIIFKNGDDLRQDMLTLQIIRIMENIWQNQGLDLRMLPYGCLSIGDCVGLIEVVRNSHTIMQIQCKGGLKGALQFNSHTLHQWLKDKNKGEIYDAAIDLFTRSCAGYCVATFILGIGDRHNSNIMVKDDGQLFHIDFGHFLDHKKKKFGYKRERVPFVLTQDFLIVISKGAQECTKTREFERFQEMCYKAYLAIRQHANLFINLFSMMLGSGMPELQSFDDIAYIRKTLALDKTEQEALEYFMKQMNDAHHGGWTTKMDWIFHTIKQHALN

B1: GST-Ad9 E4-ORF1 fusion protein (natural protein)
chain: MAESLYAFIDSPGGIAPVQEGTSNRYTFFCPESFHIPPHGVVLLHLKVSVLVPTGYQGRFMALNDYHARDILTQSDVIFAGRRQELTVLLFNHTDRFLYVRKGHPVGTLLLERVIFPSVKIATLV
notes: Human adenovirus type 9 (Ad9) E4-ORF1 protein, wild type; also called GST-E4-ORF1; glutathione S-transferase (GST) fused to Ad9 E4-ORF1; source: bacterially expressed fusion protein (plasmid pGEX-2TK with wt E4-ORF1 cDNA), on glutathione-sepharose beads
Regarding B1, the binding result is on record as “binds”.
